Positions count from the first letter of the chain named. One block for each binder: values may come before it.
What was measured:
Conditions in all cases: both partners purified
PBP1B I202F = biological target: T1, PBP1B I202F (E. coli, UniProt P02919 46-844, I202F); assay: SPR; reducing conditions: 2 mM TCEP in the SPR running buffer, immobilised PBP1B versions incubated in it for 30 min before the assay; LpoB injected from 19.5 nM to 10 μM; apparent KD
T1 construct: PBP1B, E. coli, residues 46-844, made by mutagenesis of pDML924; Substitution first found in the suppressor screen of Markovski et al. 2016 (LpoB bypass); source: E. coli BL21(DE3), purified (membrane extract, HisTrap, thrombin, HiTrap SP ion exchange)
T1 sequence (looked up): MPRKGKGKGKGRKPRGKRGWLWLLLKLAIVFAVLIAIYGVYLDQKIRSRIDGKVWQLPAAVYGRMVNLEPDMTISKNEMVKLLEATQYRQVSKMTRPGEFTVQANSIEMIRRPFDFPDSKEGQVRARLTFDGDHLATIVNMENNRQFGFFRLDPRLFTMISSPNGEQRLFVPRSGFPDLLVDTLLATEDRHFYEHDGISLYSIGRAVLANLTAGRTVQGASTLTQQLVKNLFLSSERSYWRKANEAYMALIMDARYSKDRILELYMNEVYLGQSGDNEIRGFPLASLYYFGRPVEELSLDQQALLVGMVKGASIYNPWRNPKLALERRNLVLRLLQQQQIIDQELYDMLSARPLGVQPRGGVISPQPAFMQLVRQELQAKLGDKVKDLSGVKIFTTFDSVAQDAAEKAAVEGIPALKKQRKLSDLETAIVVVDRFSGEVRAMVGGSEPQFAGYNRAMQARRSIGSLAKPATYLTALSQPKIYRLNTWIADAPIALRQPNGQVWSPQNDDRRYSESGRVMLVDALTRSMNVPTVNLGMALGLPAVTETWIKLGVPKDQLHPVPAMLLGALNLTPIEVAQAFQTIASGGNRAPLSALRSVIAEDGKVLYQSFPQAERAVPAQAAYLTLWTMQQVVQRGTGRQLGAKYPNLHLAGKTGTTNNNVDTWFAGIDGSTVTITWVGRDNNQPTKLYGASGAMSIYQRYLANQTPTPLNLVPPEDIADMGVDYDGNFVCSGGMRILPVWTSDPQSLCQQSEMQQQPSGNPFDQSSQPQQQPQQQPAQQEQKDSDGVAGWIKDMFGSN

PBP1B P162C/I644C = biological target: T2, PBP1B P162C/I644C (E. coli, UniProt P02919 46-844, P162C | I644C); assay: as above
T2 construct: PBP1B, E. coli, residues 46-844, made by mutagenesis of pDML924; Disulphide bridge between C162 and C644 (no free thiol groups detected); reduced in the SPR assay with 2 mM TCEP; source: E. coli BL21(DE3), purified (membrane extract, HisTrap, thrombin, HiTrap SP ion exchange)
T2 sequence (looked up): T1 sequence (looked up) with P117C, F157I, I599C

PBP1B R109G = biological target: T3, PBP1B R109G (E. coli, UniProt P02919 46-844, R109G); assay: SPR; PBP1B versions immobilised to the chip surface; CpoB versions injected from either 3.9 nM to 2 μM or from 78 nM to 40 μM; apparent KD by non-linear regression, at least three independent experiments
T3 construct: PBP1B, E. coli, residues 46-844, made by mutagenesis of pDML924; source: E. coli BL21(DE3), purified (membrane extract, HisTrap, thrombin, HiTrap SP ion exchange)
T3 sequence (looked up): T1 sequence (looked up) with R64G, F157I

Kd (PBP1B I202F): 17 nM
Kd (PBP1B P162C/I644C): 182 nM
B1: LpoB (natural protein, E. coli)
chain: VGQREPAPVEEVKPAPEQPAEPQQPVPTVPSVPTIPQQPGPIEHEDQTAPPAPHIRHYDWNGAMQPMVSKMLGADGVTAGSVLLVDSVNNRTNGSLNAAEATETLRNALANNGKFTLVSAQQLSMAKQQLGLSPQDSLGTRSKAIGIARNVGAHYVLYSSASGNVNAPTLQMQLMLVQTGEIIWSGKGAVSQQ
notes: LpoB, E. coli; also called lipoprotein LpoB; source: E. coli BL21(DE3), purified (HisTrap, Superdex 200), as in Egan et al. 2014

Kd (PBP1B R109G): 70 nM
B2: CpoB (full length) (natural protein, E. coli, UniProt P45955 27-263, looked up)
chain: QAPISSVGSGSVEDRVTQLERISNAHSQLLTQLQQQLSDNQSDIDSLRGQIQENQYQLNQVVERQKQILLQIDSLSSGGAAAQSTSGDQSGAAASTTPTADAGTANAGAPVKSGNANTDYNAAIALVQDKSRQDDAMVAFQNFIKNYPDSTYLPNANYWLGQLNYNKGKKDDAAYYFASVVKNYPKSPKAADAMFKVGVIMQDKGDTAKAKAVYQQVISKYPGTDGAKQAQKRLNAM
notes: CpoB, E. coli; The coiled-coil construct begins at residue 27, so the purified 'full length' protein may lack the signal peptide (surmise); source: E. coli BL21(DE3), purified (HisTrap, Superdex 200), as in Gray et al. 2015

Source: PMC6220978, “Induced conformational changes activate the peptidoglycan synthase PBP1B” (Molecular Microbiology, 2018)
